According to patent publication US20210221882A1 (Sanofi, published 2021):
Numbering of substitutions follows the chain as printed.

How the values were obtained:
Assay in all cases: cell-based or functional assay
Recombinant human IL-4 [1] = target: T1, Recombinant human IL-4 (human, UniProt P05112 25-153)
T1 sequence (looked up): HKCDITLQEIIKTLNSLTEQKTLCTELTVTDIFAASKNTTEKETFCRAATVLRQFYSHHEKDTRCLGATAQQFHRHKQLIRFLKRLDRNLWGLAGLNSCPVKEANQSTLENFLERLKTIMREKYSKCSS

Recombinant human IL-4 [2] = target: T1, Recombinant human IL-4; remark: listed apart in the source
Recombinant human IL-4 [3] = target: T1, Recombinant human IL-4; remark: listed apart in the source
cynomolgus monkey IL-4 = target: T2, cynomolgus monkey IL-4 (cynomolgus monkey, UniProt P79339 25-153, limits assumed)
T2 sequence (looked up): T1 sequence (looked up) with E26K, V29I, F33L

IC50, IL-4/IL-13-stimulated IL-6 release from LL97A IPF lung fibroblasts (combination of 15 ng/ml rhIL-13 plus 5 ng/ml rhIL-4) (Recombinant human IL-4 [1]): 7.8 nM | IC50, IL-4/IL-13-stimulated eotaxin release from LL97A IPF lung fibroblasts (combination of 15 ng/ml rhIL-13 plus 5 ng/ml rhIL-4) (Recombinant human IL-4 [1]): 3.8 nM | IC50, IL-4 and IL-13 induced LOX gene expression in IPF pulmonary fibroblasts (Taqman) (Recombinant human IL-4 [1]): 3 to 6 nM | IC50, inhibition of IL-4-induced Stat6 phosphorylation in human blood monocytes, donor 217 (Recombinant human IL-4 [2]): 0.78 nM | IC50, inhibition of IL-4-induced Stat6 phosphorylation in human blood monocytes, donor 229 (Recombinant human IL-4 [2]): 0.73 nM | IC50, inhibition of IL-4-induced Stat6 phosphorylation in human blood monocytes, donor 245 (Recombinant human IL-4 [2]): 1.32 nM | Mean IC50, inhibition of TF-1 cell proliferation induced by human IL-4 (Recombinant human IL-4 [3]): 2.03 nM | Mean IC50, inhibition of TF-1 cell proliferation induced by cynomolgus IL-4 (cynomolgus monkey IL-4): 0.53 nM
B1: huTBTI3_2_1 (bispecific antibody)
VH: EVQLKESGPGLVAPGGSLSITCTVSGFSLTDSSINWVRQPPGKGLEWLGMIWGDGRIDYADALKSRLSISKDSSKSQVFLEMTSLRTDDTATYYCARDGYFPYAMDFWGQGTSVTVSSGGGGSGGGGSQVQLQQSGPELVKPGASVKISCKASGYSFTSYWIHWIKQRPGQGLEWIGMIDPSDGETRLNQRFQGRATLTVDESTSTAYMQLRSPTSEDSAVYYCTRLKEYGNYDSFYFDVWGAGTLVTVSS
VL: DIVLTQSPASLAVSLGQRATISCRASESVDSYGQSYMHWYQQKAGQPPKLLIYLASNLESGVPARFSGSGSRTDFTLTIDPVQAEDAATYYCQQNAEDSRTFGGGTKLEIKGGGGSGGGGSDIQMTQSPASLSVSVGDTITLTCHASQNIDVWLSWFQQKPGNIPKLLIYKASNLHTGVPSRFSGSGSGTGFTLTISSLQPEDIATYYCQQAHSYPFTFGGGTKLEIK
